Legend:
cGAS (human) = assay: EMSA; details: 5 mM Mg2+, 20 mM Tris-HCl pH 7.6, 60 mM NaCl, 5 mM MgCl2, 10 ul, 30 min on ice, 80 nM (145/185) or 10 nM (2450/oligo) substrate, 1.5% agarose, 0.2x TBE
[1] = molecular target: 145-nucleosome ("601" nucleosome core particle: 145 bp Widom 601 DNA with recombinant histone octamer)
[2] = molecular target: 185-nucleosome (185 bp dsDNA, Widom 601 extended by 20 bp on both ends, with recombinant histone octamer)
[3] = molecular target: 145-nucleosome ("601" nucleosome core particle: 145 bp Widom 601 DNA with recombinant histone octamer); assay: native gel or EMSA; FAM-labelled nucleosome (0.8 pmol; oligonucleosomes 0.1 pmol) mixed with different amounts of cGAS in 20 mM Tris-HCl pH 7.6, 60 mM NaCl, 5 mM MgCl2, total volume 10 ul; on ice 30 min; 1.5% agarose gel, 0.2x TBE; Kd from percent bound nucleosome against cGAS concentration
[4] = molecular target: 185-nucleosome (185 bp dsDNA, Widom 601 extended by 20 bp on both ends, with recombinant histone octamer); assay: as above
[5] = molecular target: Oligonucleosomes (2,450 bp dsDNA reconstituted with recombinant histone octamers); assay: as above

## 145-nucleosome
cGAS (human)
  Kd: 67 nM

## human cGAS (cGMP-AMP synthase) (from UniProt Q8N884 1-522) (enzyme)
[1]
  amount of cGAMP after 3 h incubation with cGAS, ATP and GTP (UPLC-MS/MS), against that induced by dsDNA (% of that induced by dsDNA): 15
  initial velocity of cGAMP generation in vitro (UPLC-MS/MS; 2 uM cGAS, ATP, GTP, 37 °C), against that induced by 145-dsDNA (ratio to 145-dsDNA): 0.1
[2]
  amount of cGAMP after 3 h incubation with cGAS, ATP and GTP (UPLC-MS/MS), against that induced by dsDNA (% of that induced by dsDNA): 15
[3]
  Kd: 67 nM
[4]
  Kd: 172 nM
[5]
  Kd: 66 nM

## 185-nucleosome
cGAS (human)
  Kd: 172 nM

## 2,450-dsDNA
cGAS (human)
  Kd: 68 nM

## 145-dsDNA
cGAS (human)
  Kd: 350 nM

## Oligonucleosomes
cGAS (human)
  Kd: 66 nM

## 145-tailless nucleosome
cGAS (human); tailless histones: H4 del1-20, H3 del1-37, H2A del1-15, H2B del1-31
  Kd: 79 nM

## 185-dsDNA
cGAS (human)
  Kd: 394 nM
